According to publication PMC10967716:

Biological target: α-Methylacyl-CoA racemase from Mycobacterium tuberculosis, wild-type (M. tuberculosis) (UniProt O06543)
Assay: SEC

In the case of “α-Methylacyl-CoA racemase from Mycobacterium tuberculosis, wild-type (from UniProt O06543 1-360) (enzyme)”, the stoichiometry N is reported as 2.
